Laboratory results: the nanobody polyreactivity screen of Harvey et al. (2022)

Assay: yeast display, Sf9 membrane polyspecificity reagent, FACS + sequencing; frameworks hold sequencing errors
How it was run: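 A synthetic nanobody library was expressed on Saccharomyces cerevisiae BJ5465 by galactose induction for 36–48 hours. The library was stained for 1 hour at 4 °C with 10% biotinylated, detergent-solubilized Sf9 membrane reagent and enriched with streptavidin microbeads before FACS. Low and high (top ~1%) gates were set on anti-HA fluorescence for expression and streptavidin fluorescence for reagent binding, and each polyreactivity label reflects the gate of origin.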

Row | Sequence | polyreactivity (PSR sort gate)
1 | QVKLLESGGGLVQSGGSLRLSCAAYAIIFRWYTMGGYRQAPGKERQLVAAISTSTGSTYYADSVKGRFTISRDNAKNTVYLQMNSLKPEDTAVYYCAADYAYWNYESYYWGQGTQVTVSS | high polyreactivity
2 | QVKLQESGDGLVQAGGSLRLSSAASGTIFSDYGMGGYRQAPGKERELLAGISDGCNTNYTDSVKGRFTISRDNAHRVSADEQPETGGYRGVLLRGSERWLLFFVYWGQGTQVTVSS | high polyreactivity
3 | QVKLVASGGGLVQEGGSLRLSCAASGRIFGNYAMGWYRQAPGKERELVAAIDLSGDSTYYADSVKGRFTISRDNAKNTVYLQMNSLKPEDTAVYYCAADPDLLWEYSDGYYGGDGGYWGQGTQVTVSS | low polyreactivity
4 | QVKLVDSGGGLVQAGGSLRLSCAASGNIFYRYAMGWYRQAPGKERELVAAISGNSGNTYYADSVKGRFTISRDNAKNTVYLQMNSLKPDDTAVYYCAAERRAFGHYSWGQGTQVTVSS | high polyreactivity
5 | QVKLVDSGGGLVQAGGSLRLSCAASGSIFGAYAMGWYRQAHGKERELVAPITLRDGSTYYADSVKGRFTISRDNAKNTVYLQLNSLKPEDTAVYYCATYYSAINYGWSKTILYDYWGQGTQVTVSS | low polyreactivity
6 | QVKLVESAGCLVQAGGSLRLSCAASGRIFRRYAMGWYRQSTGKESELVAAISSRGGLTYYADSVKGRFTISRDNAKNTVYLLMNSLKTEDTAVYYCAAYYFVTETYGPYEYWGQGTQVTVSS | high polyreactivity
7 | QVKLVESCGGLVQAGGSLRLSCAASGYISSFNTKGWYRQAPGKERELVAAITRDGSTYYADSVKGRFTISRDNAKNSVYLQMNSLKPEYTAVYYCAARGWYATWLYYYWGQGSQVTVSS | high polyreactivity
8 | QVKLVESGGALVQAGCSLRLSCAASARTFPVYAMGWYRQAPGKERELVAAIRYSAGSTYYADSVKGRFTISRDNAKITVYLQMNSLKPEDSSVSYCARTTPTGRQYRRYDYWGQGTQLTVSS | low polyreactivity
9 | QVKLVESGGCLVQEGGSHRLSCAASGYIFDAYAMGWYRQAPGQERELVAAIDIGGSTYYADSVKGRFTISRDNAKNTVYLQMNSLKPEDTAVYYCAVWFYFDQWDYAREYWGQGTQVTVSS | low polyreactivity
10 | QVKLVESGGCLVQSGGSLRLSCADYRSIFWNNSMGWYRQATGKEWELGAGISSAGSTNYSDSVKGRFTISRDNAKNTVYLQMNSLKPEDTAVYYCAAEQYRYGIRRRHYDYWGQGTQVTLSS | low polyreactivity
11 | QVKLVESGGGIVQAGGSLRLSCAASGRTFGRNAMGWYRQAPGKERELVASITKRGGSTYYADSVKGRFTISRDNAKDTVYLQMNSLKPEDTAVYYCAVEAYDYWGQGTQVTVSS | high polyreactivity
12 | QVKLVESGGGLDQAGGSLRLSCAASGSTILQTAMGGYRQAPGKARELVASISRGGSTNYADSVKGRFTISRDNAKTSVYLQMNSLKPEDTEVYFCATRSRRSASPVVYHAYYYWGQGTHVTVSS | high polyreactivity
13 | QVKLVESGGGLVQAGASLRLSCAASGIISYGNAMGRYRQAPGKERELVASISGISGSTYYADSVKGRFTISRDNAKNTVYLQMNSLKPEDTAVYYCNARYPTYRASYHGDYWGQGTQVTVSS | low polyreactivity
14 | QVKLVESGGGLVQAGCSLRLSCAASGFIFRSYAMGWYRQAPRKERELVAVISRRGVNTHYADSVKGRFTISRDNAKNTVYLQMNSLKPEDTAVYYCAKGLSALGDYWGQGTQVTVSS | high polyreactivity
15 | QVKLVESGGGLVQAGGSLRFSCAASGSTFTKNARGWYRQAPGKERELVAGISRSGGNTYYADSVMGRFTISRDNSKNTVYLQLNRLKPEDTAVSYCAKVVRGIDSNLDDYWGQGTQVTVSS | high polyreactivity
16 | QVKLVESGGGLVQAGGSLRFTCAASGRTFGSNAMGWYRQAPGKERELVAVITTSGGSTYYADSVKGRFTISRDNAKNTVYLQMISLKPEDTAVYSCAKRVATGYKSYGYGYWGQGTQVTVSS | high polyreactivity

Row | Sequence | polyreactivity (PSR sort gate)
17 | QVKLVESGGGLVQAGGSLRLSCAASGFIFSNNAMGWYRQAPGKEMELVAAITWNGGRTYYADSVKGRFTISRDNAKNTVYLQMNSLKQVDTAVYYCAAGRYYPLFYYWGLGTQVTVSS | high polyreactivity
18 | QVKLVESGGGLVQAGGSLRLSCAASGFTFISNAMGWYRQAPGKERELVAAISSSGGRTYYADSVKGRFTISRDNAKNTVYLQMNSLKPEDTAVYYCNADRSLLYSRKIEYDYWGQGTQVTVSS | low polyreactivity
19 | QVKLVESGGGLVQAGGSLRLSCAASGFTIRSYFIVWNRQAPGKERELVAAITRRGGRTYYADSVKGRFTISRDNAKNTVFLQMNSLKPEDTAVYYCAAGPYLVDVDYWGQGTQVTVSS | high polyreactivity
20 | QVKLVESGGGLVQAGGSLRLSCAASGGIFYFNPMGWYRQEPGKERELVASITWSGGNTYYADSVKGRFTISRDIAKNTVSLQMISLKPEDTAVYYCAAYYVTPIYYYWGQGTQVTVSS | low polyreactivity
21 | QVKLVESGGGLVQAGGSLRLSCAASGIIFYPNALGWYRQAPGKERELVAAITSDGSTYYADSVKGRFTISRDNAKNTVYLQMNSLKPEDTAVYYCGAWDDYGYDYWGQGTQVTVSS | low polyreactivity
22 | QVKLVESGGGLVQAGGSLRLSCAASGITFVLYAMRWYRQAPGKERELVASITWDATDTYYADSVKGRFTISRDNAKNTVYLQMNSLKPEDTAVYYCNAAYFNYWWLEYDYWGQGTQVTVSS | high polyreactivity
23 | QVKLVESGGGLVQAGGSLRLSCAASGLIFIGYAMGWYRPAPGKEMELVASIRGVGSTNYADSVKGRFTISRDNAKNTVYLQMNSLKPEDTAVYYCPNSVDRALYTQTRGDYDYWGQGTQVTVSS | low polyreactivity
24 | QVKLVESGGGLVQAGGSLRLSCAASGNILGYNAMGWYRQEPGKERELVAAITQSGGSTYYADSVKGRFTISRDNAKYSVYLQMTSLKPEDTAVYDCAVDCGPFYDPFGYWGQGTQVTVSS | low polyreactivity
25 | QVKLVESGGGLVQAGGSLRLSCAASGRICGYYAMGWYRQAPGNERELVAAISWSGGSTYYADSVKGRFTISRDNAMNTVYLQRNSLKPEDTAVYYCNARYPNTRKYDYWGQVTQVTVSS | high polyreactivity
26 | QVKLVESGGGLVQAGGSLRLSCAASGRTFGSYAMGRYRQAPGKERELVAAITTDASTNYADSVKGRFTISRDNAKNTIYLQMNSLKPEDTAVYYCAKRNRTYYGYWGQGTQVTVSS | low polyreactivity
27 | QVKLVESGGGLVQAGGSLRLSCAASGRTFYIYAMGWYRQAPGKERELVAAITYGGGRTFYADSVKGRFTISRDNAKNTVYLQMNSRKPEDTAVYYCAATVRGKRSTYDYWGQGTQVTVSS | high polyreactivity
28 | QVKLVESGGGLVQAGGSLRLSCAASGRTFYSYAMGWYRQAPGKERELVAAISAGGSTYYADSVKGRFTISRDNAKNTVYLQMTSLKPEDTAVYYCAAPVRYTYWRYPYDYWGQGTQVTVSS | high polyreactivity
29 | QVKLVESGGGLVQAGGSLRLSCAASGSIFGGNAMGWYRQAPGKEREFVARITKRGGSTDYADSVKGRFTISRDNAKNTVYLQMNSLKPEDTAVYYCATGWTSKVHYRYGYWGQGTQVTVSS | high polyreactivity
30 | QVKLVESGGGLVQAGGSLRLSCAASGSIFPRYAMGWYRQAPGKERELVAAITGSGSSTYYADSVKGRFTISRDNAKNTVYFQMNSLKPEDTAVYYCAARKARPPFPHPFDYYWGQGTQVTVSS | low polyreactivity
31 | QVKLVESGGGLVQAGGSLRLSCAASGSTFLYYGMGWYRQAPGTERELVATITWRGGRTYYADSVKGRFTISRDNAKNTVYLQMNSLKPEDTAVYYCAARVVGSYRKPYPYGLYYWGQGTQVTVSS | high polyreactivity
32 | QVKLVESGGGLVQAGGSLRLSCAASGSTFWGYAMGWYRQEPGKERELVATITTGGSTNYADSVKGRFTISRDNAKNTVYLQMNSLKPEDTAVYYCAKEVDPGSITSYGAGAHFGFDYWGQGTQVTVSS | low polyreactivity
